Patent publication US20210187069A1
Substitutions are numbered along the chain they refer to. Numbers in names are those of the source. Each block holds one binder with its values, some of them ahead of it.

Target: T1, wildtype SARM1 (endogenous, in wildtype mouse dorsal root ganglion neurons) (mouse) (UniProt Q6PDS3)
T1 sequence (looked up): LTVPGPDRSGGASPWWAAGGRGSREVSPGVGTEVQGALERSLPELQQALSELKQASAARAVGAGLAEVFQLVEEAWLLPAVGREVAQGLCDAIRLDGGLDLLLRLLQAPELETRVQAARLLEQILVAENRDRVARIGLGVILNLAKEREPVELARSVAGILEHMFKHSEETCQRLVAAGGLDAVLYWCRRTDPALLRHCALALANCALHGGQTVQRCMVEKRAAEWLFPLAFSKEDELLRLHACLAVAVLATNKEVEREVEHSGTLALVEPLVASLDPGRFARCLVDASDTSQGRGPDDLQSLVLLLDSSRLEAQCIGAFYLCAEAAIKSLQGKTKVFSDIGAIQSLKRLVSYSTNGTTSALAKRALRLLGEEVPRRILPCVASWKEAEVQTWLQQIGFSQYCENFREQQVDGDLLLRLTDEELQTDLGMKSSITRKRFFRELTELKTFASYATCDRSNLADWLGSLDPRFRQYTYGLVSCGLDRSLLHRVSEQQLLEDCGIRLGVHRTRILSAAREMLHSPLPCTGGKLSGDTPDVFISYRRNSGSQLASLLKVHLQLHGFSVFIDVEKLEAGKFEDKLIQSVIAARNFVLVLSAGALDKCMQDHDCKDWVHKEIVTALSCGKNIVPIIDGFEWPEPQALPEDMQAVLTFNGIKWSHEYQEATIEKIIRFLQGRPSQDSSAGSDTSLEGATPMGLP
Experiment: cell-based or functional assay

axon degeneration (degeneration index) after axotomy of wildtype DRG neurons: 72 h
B2: SARM1-H685Y (enzyme, not shown: large carriers)
chain: LAVPGPDGGGGTGPWWAAGGRGPREVSPGAGTEVQDALERALPELQQALSALKQAGGARAVGAGLAEVFQLVEEAWLLPAVGREVAQGLCDAIRLDGGLDLLLRLLQAPELETRVQAARLLEQILVAENRDRVARIGLGVILNLAKEREPVELARSVAGILEHMFKHSEETCQRLVAAGGLDAVLYWCRRTDPALLRHCALALGNCALHGGQAVQRRMVEKRAAEWLFPLAFSKEDELLRLHACLAVAVLATNKEVEREVERSGTLALVEPLVASLDPGRFARCLVDASDTSQGRGPDDLQRLVPLLDSNRLEAQCIGAFYLCAEAAIKSLQGKTKVFSDIGAIQSLKRLVSYSTNGTKSALAKRALRLLGEEVPRPILPSVPSWKEAEVQTWLQQIGFSKYCESFREQQVDGDLLLRLTEEELQTDLGMKSGITRKRFFRELTELKTFANYSTCDRSNLADWLGSLDPRFRQYTYGLVSCGLDRSLLHRVSEQQLLEDCGIHLGVHRARILTAAREMLHSPLPCTGGKPSGDTPDVFISYRRNSGSQLASLLKVHLQLHGFSVFIDVEKLEAGKFEDKLIQSVMGARNFVLVLSPGALDKCMQDHDCKDWVHKEIVTALSCGKNIVPIIDGFEWPEPQVLPEDMQAVLTFNGIKWSYEYQEATIEKIIRFLQGRSSRDSSAGSDTSLEGAAPMGPTATT

axon degeneration (degeneration index) after axotomy of wildtype DRG neurons: 72 h
B3: SARM1-K193R (enzyme, not shown: large carriers)
chain: B2 chain with K166R, Y658H

axon degeneration (degeneration index) after axotomy of wildtype DRG neurons: 72 h
B6: SARM1-H685A (enzyme, not shown: large carriers)
chain: B2 chain with Y658A

Further lines, the binder ahead of its results:

B1: SARM1 K628D (enzyme, not shown: large carriers)
chain: B2 chain with K601D, Y658H
axon degeneration after axotomy: 24 h

B4: SARM1-E642A (enzyme, not shown: large carriers)
chain: B2 chain with E615A, Y658H
mitochondrial membrane potential (TMRM fluorescence) in severed axons of wildtype DRG neurons: 24 h

B5: SARM1 C629S (enzyme, not shown: large carriers)
chain: B2 chain with C602S, Y658H
axon degeneration after axotomy: 24 h
